Measured values from publication PMC3701638.

Target: α-casein

## GST-CK1δ (FP449), wild-type full length rat CK1δ (from UniProt Q06486 1-415) (enzyme)
  Km of α-casein phosphorylation by the kinase (in vitro kinase assay, Michaelis-Menten fit): 4.84 µM

## GST-CK1δ^(S328A, S370A) (FP1292) (from UniProt Q06486 1-415) (enzyme)
  Km of α-casein phosphorylation by the kinase (in vitro kinase assay, Michaelis-Menten fit): 5.31 µM

## GST-CK1δ^(S328A, S370A, T397A) (FP1293) (from UniProt Q06486 1-415) (enzyme)
  Km of α-casein phosphorylation by the kinase (in vitro kinase assay, Michaelis-Menten fit): 7.74 µM

## GST-CK1δ^(S328A, T397A) (FP1268) (from UniProt Q06486 1-415) (enzyme)
  Km of α-casein phosphorylation by the kinase (in vitro kinase assay, Michaelis-Menten fit): 6.63 µM

## GST-CK1δ^S328A (FP1267) (from UniProt Q06486 1-415) (enzyme)
  Km of α-casein phosphorylation by the kinase (in vitro kinase assay, Michaelis-Menten fit): 5.49 µM

## GST-CK1δ^S370A (FP1030) (from UniProt Q06486 1-415) (enzyme)
  Km of α-casein phosphorylation by the kinase (in vitro kinase assay, Michaelis-Menten fit): 7.38 µM

## GST-CK1δ^T397A (FP1184) (from UniProt Q06486 1-415) (enzyme)
  Km of α-casein phosphorylation by the kinase (in vitro kinase assay, Michaelis-Menten fit): 7.2 µM
